Assay [1] has as its target T1, human Shank1 PDZ (652-765), GST tag removed (human, UniProt Q9Y566 652-765).
T1 sequence: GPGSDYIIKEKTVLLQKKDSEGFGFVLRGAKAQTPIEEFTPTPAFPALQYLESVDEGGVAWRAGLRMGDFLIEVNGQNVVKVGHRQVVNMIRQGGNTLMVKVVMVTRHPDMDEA
Kind of assay: fluorescence polarisation. A general note: In fluorescence polarisation assays a small probe gives low polarisation when free and higher when bound to something large.

Assay [2] concerns the target C-terminally truncated ARAP3 peptide (human). Kind of assay: fluorescence polarisation.

No end group written: not given here.

The text below walks through data of paper PMC8244488 (Current Research in Structural Biology, 2021).

For FPELIQDTSTSFSTTR (also: FITC label, position not given here) [ARAP3_(1414-1429) peptide], the binding result in assay [1] is given as “binds”.

B1: human Shank1 PDZ (652-765), GST tag removed (domain or fragment)
chain: GPGSDYIIKEKTVLLQKKDSEGFGFVLRGAKAQTPIEEFTPTPAFPALQYLESVDEGGVAWRAGLRMGDFLIEVNGQNVVKVGHRQVVNMIRQGGNTLMVKVVMVTRHPDMDEA
Regarding B1, the fold change in affinity against ARAP3 (1414-1429) in assay [2] worked out at 2.5 fold.
